Each block holds one molecule with its values, some of them ahead of it.
Experiments:
CCK-B receptor = molecular target: T1, CCK-B receptor (Homo sapiens, UniProt P32239); test: competitive binding assay against CCK-8 for binding to the CCK-B GPCR receptor; conditions: for inhibition of CCK-8 binding to the CCK-B receptor: peptides purified from trypsin hydrolysate, 10 μM; for inhibition of binding of the ligand CCK-8 to CCK-B receptor: synthetic peptides, 10 μM concentration
T1 sequence (P32239 1-447): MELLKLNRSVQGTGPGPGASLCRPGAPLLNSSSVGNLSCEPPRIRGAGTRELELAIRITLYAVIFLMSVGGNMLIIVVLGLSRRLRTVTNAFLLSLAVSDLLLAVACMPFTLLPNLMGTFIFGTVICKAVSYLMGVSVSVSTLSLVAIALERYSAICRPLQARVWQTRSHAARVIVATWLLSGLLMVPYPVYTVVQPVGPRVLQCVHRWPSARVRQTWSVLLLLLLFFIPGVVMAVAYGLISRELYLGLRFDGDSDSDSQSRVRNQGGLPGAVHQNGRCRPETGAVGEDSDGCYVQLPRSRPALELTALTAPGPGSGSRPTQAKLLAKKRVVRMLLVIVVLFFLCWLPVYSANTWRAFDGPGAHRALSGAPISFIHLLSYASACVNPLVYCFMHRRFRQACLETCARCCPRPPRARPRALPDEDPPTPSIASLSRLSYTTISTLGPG
Experimental: Oryzacystatin is a cystein proteinase inhibitor protein. […] The peptides […], PWMDFK and […] were synthesized in 5 mg quantities and purified to a purity of above about 90%. The peptides were tested in a competitive binding assay against CCK-8 for binding to the CCK-B GPCR receptor.
In-vitro receptor-based screening of receptor subtypes CCK-A and CCK-B was performed according to protocols known in the art. The binding activity of peptides […], PWMDFK and […] on CCK-A and CCK-B GPCR was measured as the percentage of inhibition of binding of the endogenous ligand CCK-8 sequence. The CCK-8 sequence was used as a positive control in this assay. […] None of the peptides tested activated CCK-A receptor at concentrations as high as 10 μM, probably due to the lack of sulfonation, a chemical modification required for agonizing the CCK-A receptor.
Hydrolysates were generated from the recombinantly expressed and purified oryzacystatin protein which was isolated from Oryza sativa. Trypsin was used to hydrolyze 10 mg of each sample using standard conditions. […] Again the hydrolysate and the two purified peptides were submitted to receptor-based screening. The hydrolysate itself inhibited CCK-8 binding to the CCK-B receptor by 21% at a 100 μM hydrolysate concentration, while the purified peptides, […] and PWMDFK, inhibited CCK-8 binding by 16%, and 14% at a 10 μM concentrations.
A final optimization of the hydrolysis by the combined consecutive action of trypsin and limited carboxypeptidase digestion was carried out with the goal of obtaining the peptides […] and PWMDF, resulting from the removal of the C-terminal lysine residue.

Y2-GPCR = molecular target: T2, Y2-GPCR (Homo sapiens, UniProt P49146); test: competitive binding assay against PYY22-36 on Y2-GPCR
T2 sequence (P49146 1-381): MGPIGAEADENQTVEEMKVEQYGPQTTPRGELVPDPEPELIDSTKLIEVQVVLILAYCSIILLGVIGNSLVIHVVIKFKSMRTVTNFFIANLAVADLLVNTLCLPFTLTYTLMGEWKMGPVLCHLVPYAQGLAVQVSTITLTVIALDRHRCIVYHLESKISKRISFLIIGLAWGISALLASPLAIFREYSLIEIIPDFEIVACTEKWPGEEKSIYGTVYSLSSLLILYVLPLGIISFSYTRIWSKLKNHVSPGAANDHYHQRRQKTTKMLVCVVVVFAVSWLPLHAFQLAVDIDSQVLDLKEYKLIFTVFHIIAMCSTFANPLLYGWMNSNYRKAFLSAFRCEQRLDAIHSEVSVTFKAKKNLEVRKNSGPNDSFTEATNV
Experimental: The peptides derived from the proteins AtRGP2, OsRGP1 and OsBiP were synthesized in 5 mg quantities at and purified to a purity of above about 90%. The peptides were tested in a competitive binding assay against PYY^22-36 for binding to the GPCR receptor.
In-vitro receptor-based screening of receptor subtypes Y1, Y2, and Y3 was performed according to protocols known in the art. (Munoz et al., Mol. Cell. Endocrinol. 107, 77 (1995), Fuhlendorf et al., PNAS 87, 182 (1990)) Screening of OsBiP, ZMRGP1 and AtRGP1 was conducted on Y2-GPCR as described above using known methods and activity was measured as the percentage of inhibition of binding of the endogenous ligand PYY^22-36 sequence. The PYY^22-36 sequence was used as a positive control. Of the peptides tested, the one derived from AtRGP1 protein was able to inhibit binding of PYY^22-36 by 20-40% when 10 μM concentration of both the PYY^22-36 and […] peptide were used in the binding assay. […] In vivo tissue-based screening on cultures of rat colon cells can be carried out according to known protocols, such as described in Dumont et al., Eur. J. Pharmacol. 238, 37 (1993).

[1] = obese or nonobese subjects, cited from earlier work
[2] = molecular target: T3, CCK-B GPCR receptor (Homo sapiens (Human)) (UniProt P32239); test: competitive receptor binding assay against CCK-8 on CCK-B receptor, synthetic peptide at 10 µM
T3 sequence: T1 sequence (P32239 1-447)

[3] = molecular target: T4, Y2 G-protein-coupled receptor; test: competitive receptor binding assay on Y2-GPCR against PYY22-36, both peptides at 10 µM
T4 sequence (P49146 whole entry, species assumed, looked up): T2 sequence (P49146 1-381)

Molecule: VWEKPWMDFK (listed as Oryza sativa) [Oryza sativa oryzacystatin fragment, trypsin]
inhibition of CCK-8 binding to the CCK-B receptor (CCK-B receptor): 16% | inhibition of binding of the ligand CCK-8 to CCK-B receptor (CCK-B receptor): 27%

Molecule: YSCRYFGYLVSKKKY (listed as Arabidopsis thaliana) [AtRGP1, peptide derived from Arabidopsis thaliana amylogenin protein RGP]
percentage of inhibition of binding of PYY22-36 (Y2-GPCR; Y2-GPCR, 10 μM concentration of both PYY22-36 and peptide): 20-40%

Molecule: PWMDFK (listed as Oryza sativa) [Oryza sativa oryzacystatin fragment, trypsin]
inhibition of CCK-8 binding to the CCK-B receptor (CCK-B receptor): 14% | inhibition of binding of the ligand CCK-8 to CCK-B receptor (CCK-B receptor): 16%

Molecule: PYY: natural hormone produced by endocrine L-cells in the gut; agonist of Y2 receptors
cumulative 24-hour caloric intake ([1]; after 90-minute intravenous infusion): significant decrease | reduction of caloric intake ([1]; two hours after a 90-minute intravenous infusion): 30%

Molecule: YSCRYFGYLVSKKKY [AtRGP2 peptide fragment]
% inhibition of binding of PYY22-36 [3]: 20 to 40%

Next, values leading:

binding to the Y2 receptor (Y2-GPCR; qualitative): shown to bind the Y2 receptor
Molecule: FDGVDFSEPLTRARF (listed as Oryza sativa) [OsBIP]

inhibition of binding of the ligand CCK-8 to CCK-B receptor (CCK-B receptor): 5%
Molecule: PWMDFKELQEFK (listed as Oryza sativa) [Oryza sativa oryzacystatin fragment, trypsin]

% inhibition of binding of CCK-8 [2]: 5%
Molecule: PWMDFKELQEFK [Oryza sativa oryzacystatin hydrolyzed with trypsin - synthetic peptide 3]

From patent US20060210655A1, “Bioactive compositions, natural methods of producing them and computational methods for designing natural production processes” (priority 2004, published 2006)
